In the test the test system is TrkB (TrkB-Flag). The test is described as follows: Co-IP of MDGA2 and its truncations with TrkB-Flag in HEK293T cells. The class given is binding, human. The conditions noted are these: HEK293T cells co-transfected with TrkB-Flag and GFP-tagged MDGA2 constructs. On the procedure:
Fig 3 MDGA2 interacts with TrkB and suppresses TrkB activity. (A) Primary hippocampal neurons derived from Mdga2^ +/− (Het) mice and their wild-type (WT) littermates at DIV 7 were treated with different doses of BDNF for 30 min. Equal amounts of protein lysates were subjected to immunoprecipitation (IP) with an anti-TrkB antibody, followed by immunoblotting with an anti-phosphotyrosine (pTyr) antibody or the anti-TrkB antibody. The pTyr levels were quantified by densitometry, normalized to total TrkB levels, and then compared to those of WT controls. n = 3 per group. (B) WT mouse brain lysates were subjected to IP with an anti-MDGA2 antibody and a control IgG, and immunoblotted (IB) for the components indicated. mBDNF, mature BDNF; ImBDNF, immature BDNF. (C) Hippocampal neurons from WT mice at DIV 7 were immunostained with antibodies against MDGA2 (red) and TrkB (green), and then counter-stained with DAPI (blue). Images were acquired by a confocal microscope. Scale bar: 10 μm. (D) Surface plasmon resonance (SPR) analysis of the binding between recombinant MDGA2 protein and recombinant TrkB protein. TrkB was immobilized on a Biacore CM5 chip and tested for its binding with MDGA2 at the concentrations indicated. (E) Computer simulation of the binding mode of TrkB and MDGA2. The predicted binding domain of TrkB (the d5 domain) is highlighted by a red square and labeled in brown. The predicted binding domain of MDGA2 (the MAM domain) is highlighted by a red square and labeled in yellow. […] Immunoprecipitated TrkB levels were quantified by densitometry, normalized to input levels, and compared to respective controls (set to one arbitrary units). n = 3 per group. […] Levels of phosphorylated proteins were quantified by densitometry, normalized to respective total protein levels and compared to controls (set to one arbitrary units). n = 6 per group. […] P-values were determined by two-tailed unpaired Student t-test in (A) and one-way ANOVA with Tukey’s multiple comparisons test in (H, I, J). *p < 0.05, **p < 0.01, ***p < 0.001, ns: not significant. […]

B1: MDGA2-ΔM1: MDGA2 lacking the N-terminal region (aa 746–833) of MAM domain (protein)
chain: PPTVRIVHSGLACNIEEERYSERVYTIREGETLELTCLVTGHPRPQIRWTKTAGSASDRFQDSSVFNETLRITNIQRHQGGRYYCKAENGLGSPAIKSIRVDVYYLDDPVVTVHQSIGEAKEQFYYERTVFLRCVANSNPPVRYSWRRGQEVLLQGSDKGVEIYEPFFTQGETKILKLKNLRPQDYANYSCIASVRNVCNIPDKMVSFRLSNKTASPSIKLLVDDPIVVNPGEAITLVCVTTGGEPAPSLTWVRSFGTLPEKTVLNGGTLTIPAITSDDAGTYSCIANNNVGNPAKKSTNIIVRALKKGRFWITPDPYHKDDNIQIGREVKISCQVEAVPSEELTFSWFKNGRPLRSSERMVITQTDPDVSPGTTNLDIIDLKFTDFGTYTCVASLKGGGISDISIDVNISSSTVPPNLTVPQEKSPLVTREGDTIELQCQVTGKPKPIILWSRADKEVAMPDGSMQMESYDGTLRIVNVSREMSGMYRCQTSQYNGFNVKPREALVQLIVQYPPAVEPAFLEIRQGQDRSVTMSCRVLRAYPIRVLTYEWRLGNKLLRTGQFDSQEYTEYAVKSLSNENYGVYNCSIINEAGAGRCSFLVTGKAYAPEFYYDTYNPVWQNRHRVYSYSLQWTQMNPDAVDRIVAYRLGIRQAGQQRWWEQEIKINGNIQKGELITYNLTELIKPEAYEVRLTPLTKFGEGDSTIRVIKYSAPVNPHLREAYCFSFFYHMYGQHIGVLNVYLRLKGQTTIENPLWSSSGNKGQRWNEAHVNIYPITSFQLIFEGIRGPGIEGDIAIDDVSIAEGECAKQDLATKNSVD
modifications: left off: GFP, end not stated, kept
notes: MDGA2 lacking the N-terminal region (aa 746–833) of MAM domain
Take B1: the “interaction with TrkB (Co-IP)” value is “abolished the interaction between MDGA2 and TrkB”.

B2: MDGA2-ΔM2: MDGA2 lacking the C-terminal region (aa 834–921) of MAM domain (protein)
chain: PPTVRIVHSGLACNIEEERYSERVYTIREGETLELTCLVTGHPRPQIRWTKTAGSASDRFQDSSVFNETLRITNIQRHQGGRYYCKAENGLGSPAIKSIRVDVYYLDDPVVTVHQSIGEAKEQFYYERTVFLRCVANSNPPVRYSWRRGQEVLLQGSDKGVEIYEPFFTQGETKILKLKNLRPQDYANYSCIASVRNVCNIPDKMVSFRLSNKTASPSIKLLVDDPIVVNPGEAITLVCVTTGGEPAPSLTWVRSFGTLPEKTVLNGGTLTIPAITSDDAGTYSCIANNNVGNPAKKSTNIIVRALKKGRFWITPDPYHKDDNIQIGREVKISCQVEAVPSEELTFSWFKNGRPLRSSERMVITQTDPDVSPGTTNLDIIDLKFTDFGTYTCVASLKGGGISDISIDVNISSSTVPPNLTVPQEKSPLVTREGDTIELQCQVTGKPKPIILWSRADKEVAMPDGSMQMESYDGTLRIVNVSREMSGMYRCQTSQYNGFNVKPREALVQLIVQYPPAVEPAFLEIRQGQDRSVTMSCRVLRAYPIRVLTYEWRLGNKLLRTGQFDSQEYTEYAVKSLSNENYGVYNCSIINEAGAGRCSFLVTGKAYAPEFYYDTYNPVWQNRHRVYSYSLQWTQMNPDAVDRIVAYRLGIRQAGQQRWWEQEIKINGNIQKGELITYNLTELIKPEAYEVRLTPLTKFGEGDSTIRVIKYSAPVNPHLREFHCGFEDGNICLFTQDDTDNFDWTKQSTATRNTKYTPNTGPNADRSGSKEGFYMYIETSRPRLEGEKARLLSPVFSIAPKNPYGPTNTQDLATKNSVD
modifications: left off: GFP, end not stated, kept
notes: MDGA2 lacking the C-terminal region (aa 834–921) of MAM domain
Consider B2, for which the “interaction with TrkB (Co-IP)” value was “not M2 abolished the interaction”.

(Values after paper PMC11960969, “Mdga2 deficiency leads to an aberrant activation of BDNF/TrkB signaling that underlies autism-relevant synaptic and behavioral changes in mice” (PLOS Biology, 2025).)
